The values that follow come from US20170254807.

The nature of data set [1]: bead aggregation assay, fluorescence microscopy.
A short description of data set [2]: bead aggregation assay, flow cytometry, experiment 1, before the 90 min incubation.

B1: Fc-D1/D2 (mBetacam D1-D2 domain, aa 33-239, fused to human IgG1 Fc; pFUSE-Fc-D1/D2) (protein)
chain: LKVTVPSYTVHGIRGQALYLPVHYGFHTPASDIQIIWLFERSHTMPKYLLGSVNKSVVPDLEYQHKFTMMPPNASLLINPLQFTDEGNYIVKVNIQGNGTLSASQKIQVTVDDPVMKPMVQFHPASGAVEYVGNITLTCQVEGGTRLVYQWRKSGKPISINSSHSFSPQNNTLWIVPVTKEDIGNYTCLVSNPVSEMESDIIMPTIY
As to B1, the aggregate size entry in data set [1] is reported as “Aggregates of >100 beads were observed”.

B2: Fc-D3 (mBetacam D3 domain, aa 240-335, fused to human IgG1 Fc; pFUSE-Fc-D3) (protein)
chain: YGPYGLQVNSDKGLKVGEVFTVDLGEAVLFDCSADSYPPNTYSWIQRSDNTTHVIKHGPHLEVASEKVAQKTADYVCCAYNNITGRRDETRFTVII
In the case of B2, the “P3 (aggregates) prior to incubation” value in data set [2] is given as “P3 prior to incubation is 40.8%”.
